{"source": "patent US20240301064A1", "about": "(published 2024)", "binders": {"B1": {"name": "PMAB137 (bispecific antibody, human IgG1, kappa)", "heavy": "EVQLLESGGGLVQPGGSLRLSCAASGFTFSNSAMSWVRQAPGKGLEWVSGITISGGSTYYADSVKGRFTISRDNSKNTLYLQMNSLRAEDTAVYYCARGRGGSGWLDYWGQGTLVTVSSASTKGPSVFPLAPSSKSTSGGTAALGCLVKDYFPEPVTVSWNSGALTSGVHTFPAVLQSSGLYSLSSVVTVPSSSLGTQTYICNVNHKPSNTKVDKKVEPKSCDKTHTCPPCPAPEAAGAPSVFLFPPKPKDTLMISRTPEVTCVVVDVSHEDPEVKFNWYVDGVEVHNAKTKPREEQYNSTYRVVSVLTVLHQDWLNGKEYKCKVSNKALPAPIEKTISKAKGQPREPQVYTLPPSREEMTKNQVSLTCLVKGFYPSDIAVEWESNGQPENNYKTTPPVLDSDGSFFLYSKLTVDKSRWQQGNVFSCSVMHEALHNHYTQKSLSLSPGGGGGSGGGGSGGGGSEVQLLESGGGLVQPGGSLRLSCAASGFTFSDFWMHWVRQAPGKGLEWISYISGDSGYTNYADSVKGRFTISRDNSKNTLYLQMNSLRAEDTAVYYCARDRPYYYYMDVWGKGTTVTVSSGGGGSGGGGSGGGGSGGGGSDIQMTQSPSSLSASVGDRVTITCRASQSVSRSLAWYQQKPGKAPKLLIYAASSLQSGVPSRFSGSGSGTDFTLTISSLQPEDFATYYCQQYKSYPVTFGQGTKVEIK", "light": "not shown"}, "B2": {"name": "PMAB145 (bispecific antibody, human IgG1, kappa)", "heavy": "B1 heavy with A33D", "light": "not shown"}, "B3": {"name": "PMAB182 (bispecific antibody, human IgG1, kappa)", "heavy": "B1 heavy with N31S, S32Y, T52S, I53G", "light": "not shown"}, "B4": {"name": "PMAB184 (bispecific antibody, human IgG1, kappa)", "heavy": "B1 heavy with N31S, S32Y, A33D, G50A, T52S, I53G", "light": "not shown"}, "B5": {"name": "PMAB144 (bispecific antibody, human IgG1, kappa)", "heavy": "B1 heavy with A33D", "light": "not shown"}, "B6": {"name": "PMAB179 (bispecific antibody, human IgG1, kappa)", "heavy": "B1 heavy with N31S, S32Y, A33D, G50A, T52S", "light": "not shown"}, "B7": {"name": "MIAB147 (antibody, human IgG1, kappa)", "heavy": "EVQLLESGGGLVQPGGSLRLSCAASGFTFSDFWMHWVRQAPGKGLEWISYISGDSGYTNYADSVKGRFTISRDNSKNTLYLQMNSLRAEDTAVYYCARDRPYYYYMDVWGKGTTVTVSSASTKGPSVFPLAPSSKSTSGGTAALGCLVKDYFPEPVTVSWNSGALTSGVHTFPAVLQSSGLYSLSSVVTVPSSSLGTQTYICNVNHKPSNTKVDKKVEPKSCDKTHTCPPCPAPEAAGAPSVFLFPPKPKDTLMISRTPEVTCVVVDVSHEDPEVKFNWYVDGVEVHNAKTKPREEQYNSTYRVVSVLTVLHQDWLNGKEYKCKVSNKALPAPIEKTISKAKGQPREPQVYTLPPSREEMTKNQVSLTCLVKGFYPSDIAVEWESNGQPENNYKTTPPVLDSDGSFFLYSKLTVDKSRWQQGNVFSCSVMHEALHNHYTQKSLSLSPGGGGGSAPTSSSTKKTQLQLEHLLLDLQMILNGINNYKNPKLTRMLTFKFYMPKKATELKHLQCLEEELKPLEEALNLAPSKNFHLRPRDLISDINVIVLELKGSETTFMCEYADETATIVEFINRWITFSQSIISTLT", "light": "not shown", "notes": "also called MIAB147-001"}, "B8": {"name": "MIAB182 (antibody, human IgG1, kappa)", "heavy": "B7 heavy with D31S, F32Y, I48V, Y50A, D54S, S55G, Y57S, N59Y", "light": "not shown", "notes": "also called MIAB182-001"}, "B9": {"name": "MIAB149 (antibody, human IgG1, kappa)", "heavy": "B7 heavy", "light": "not shown", "notes": "also called MIAB149-001"}, "B10": {"name": "MIAB184 (antibody, human IgG1, kappa)", "heavy": "B7 heavy with D31S, F32Y, I48V, Y50A, D54S, S55G, Y57S, N59Y", "light": "not shown", "notes": "also called MIAB184-001"}, "B11": {"name": "MIAB169 (antibody, human IgG1, kappa)", "heavy": "B7 heavy with Y105I", "light": "DIQMTQSPSSLSASVGDRVTITCRASQSVSRSLAWYQQKPGKAPKLLIYAASSLQSGVPSRFSGSGSGTDFTLTISSLQPEDFATYYCQQYKSYPVTFGQGTKVEIKRTVAAPSVFIFPPSDEQLKSGTASVVCLLNNFYPREAKVQWKVDNALQSGNSQESVTEQDSKDSTYSLSSTLTLSKADYEKHKVYACEVTHQGLSSPVTKSFNRGEC", "notes": "also called MIAB169-CHO; MIAB169-HEK"}, "B12": {"name": "MIAB183 (antibody, human IgG1, kappa)", "heavy": "B7 heavy with D31S, F32Y, I48V, Y50A, D54S, S55G, Y57S, N59Y", "light": "B11 light with R31S", "notes": "also called MIAB183-001"}, "B13": {"name": "PMAB61 (bispecific antibody, human IgG1, kappa)", "heavy": "EVQLVQSGAEVKKPGASVKVSCKASGYSFTSYYMHWVRQAPGQGLEWMGIINPSGGSTSYAQKFQGRVTMTRDTSTSTVYMELSSLRSEDTAVYYCASGWVYWGQGTLVTVSSASTKGPSVFPLAPSSKSTSGGTAALGCLVKDYFPEPVTVSWNSGALTSGVHTFPAVLQSSGLYSLSSVVTVPSSSLGTQTYICNVNHKPSNTKVDKKVEPKSCDKTHTCPPCPAPEAAGAPSVFLFPPKPKDTLMISRTPEVTCVVVDVSHEDPEVKFNWYVDGVEVHNAKTKPREEQYNSTYRVVSVLTVLHQDWLNGKEYKCKVSNKALPAPIEKTISKAKGQPREPQVYTLPPSREEMTKNQVSLTCLVKGFYPSDIAVEWESNGQPENNYKTTPPVLDSDGSFFLYSKLTVDKSRWQQGNVFSCSVMHEALHNHYTQKSLSLSPGGGGGSGGGGSGGGGSEVQLLESGGGLVQPGGSLRLSCAASGFTFSSYWMHWVRQAPGKGLEWVSYISGSGGYTNYADSVKGRFTISRDNSKNTLYLQMNSLRAEDTAVYYCARDRPYYYDMDVWGKGTTVTVSSGGGGSGGGGSGGGGSGGGGSDIQMTQSPSSLSASVGDRVTITCRASQSISSSLAWYQQKPGKAPKLLIYAASSLQSGVPSRFSGSGSGTDFTLTISSLQPEDFATYYCQQYKSYPVTFGQGTKVEIK", "light": "not shown"}}, "key": {"human PD-1": {"biological_target": "T1, human PD-1 (human, UniProt Q15116 25-167, limits assumed)", "T1 construct": "also called huPD-1", "T1 sequence (Q15116 25-167 limits assumed)": "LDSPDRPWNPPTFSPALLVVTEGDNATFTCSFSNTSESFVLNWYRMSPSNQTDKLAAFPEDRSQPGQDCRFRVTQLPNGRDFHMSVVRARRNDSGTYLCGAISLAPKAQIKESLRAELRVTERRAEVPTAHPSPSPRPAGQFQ", "assay": "BLI, antibody on AHC tip"}, "Insulin": {"biological_target": "T2, Insulin", "T2 construct": "polyreactivity antigen", "T2 sequence (P01308 25-54, chain 1 of 2)": "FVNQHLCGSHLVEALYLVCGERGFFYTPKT", "T2 sequence (P01308 90-110, chain 2 of 2)": "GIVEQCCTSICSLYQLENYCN", "assay": "ELISA on coated insulin, 100 nM antibody"}, "human MAdCAM [1]": {"biological_target": "T3, human MAdCAM (human, UniProt Q13477 19-317, limits assumed)", "T3 construct": "also called huMAdCAM", "T3 sequence (looked up)": "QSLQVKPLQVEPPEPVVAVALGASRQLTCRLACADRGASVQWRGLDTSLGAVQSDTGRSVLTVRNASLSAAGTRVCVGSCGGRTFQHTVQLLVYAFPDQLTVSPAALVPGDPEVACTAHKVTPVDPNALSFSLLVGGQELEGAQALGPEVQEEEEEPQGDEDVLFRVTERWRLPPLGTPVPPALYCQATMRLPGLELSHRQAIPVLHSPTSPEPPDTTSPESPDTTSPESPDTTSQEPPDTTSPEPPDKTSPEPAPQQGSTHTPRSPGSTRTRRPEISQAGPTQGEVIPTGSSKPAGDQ", "assay": "BLI Octet, against PRNT1", "experimental": "(§1) Anti-human Fc biosensors were equilibrated in assay buffer (1% BSA in 1×PBS with 0.05% Tween-20) for 10 minutes before the experiment was set-up. Test articles were diluted to 5 μg/mL in assay buffer and 200 μL pipetted to 96 well plate. Human MAdCAM was titrated down, two-fold dilutions (starting at 600 nM as the highest concentration, 7-point dilution). Experiment was run using data acquisition software version 10.0 for OCTET96 RED. Test articles were captured using anti-human Fc biosensors for 180 s. Biosensors loaded with test articles were then equilibrated in assay buffer for 120 s. Association was performed in wells with huMAdCAM for 180 seconds. Dissociation was performed in wells with assay buffer for 180 s. Kinetic parameters (kon and kdis) and dissociation constant (KD) were calculated from a 1:1 global fit model using the data analysis software of the Octet96 RED software version 10."}, "human MAdCAM [2]": {"biological_target": "T3, human MAdCAM", "assay": "BLI Octet", "experimental": "as §1"}, "[3]": {"biological_target": "PD-1 on PD-1 reporter Jurkat cells", "assay": "cell-based or functional assay"}}, "note": "Residue numbers refer to the chain shown, from its start."}
{"binder": "B1", "values": [{"measurement": "binding result", "setting": "human PD-1", "value": "no binding (tested: 1000 nM)"}]}
{"binder": "B2", "values": [{"measurement": "binding result", "setting": "human PD-1", "value": "no binding (tested: 1000 nM)"}]}
{"binder": "B3", "values": [{"measurement": "binding result", "setting": "human PD-1", "value": "no binding (tested: 1000 nM)"}]}
{"binder": "B4", "values": [{"measurement": "binding result", "setting": "human PD-1", "value": "no binding (tested: 1000 nM)"}]}
{"binder": "B5", "values": [{"measurement": "binding result", "setting": "human PD-1", "value": "no binding (tested: 1000 nM)"}]}
{"binder": "B6", "values": [{"measurement": "binding result", "setting": "human PD-1", "value": "no binding (tested: 1000 nM)"}]}
{"binder": "B7", "values": [{"measurement": "Insulin polyreactivity score", "setting": "Insulin", "value": 3.81}]}
{"binder": "B8", "values": [{"measurement": "fold reduction of MAdCAM affinity", "setting": "human MAdCAM [1]", "value": 10, "unit": "fold"}]}
{"binder": "B9", "values": [{"measurement": "Insulin polyreactivity score", "setting": "Insulin", "value": 3.53}]}
{"binder": "B10", "values": [{"measurement": "fold reduction of MAdCAM affinity", "setting": "human MAdCAM [1]", "value": 40, "unit": "fold"}]}
{"binder": "B11", "values": [{"measurement": "fold lower affinity than parent PRNT1", "setting": "human MAdCAM [2]", "value": 10, "unit": "fold"}]}
{"binder": "B12", "values": [{"measurement": "fold reduction of MAdCAM affinity", "setting": "human MAdCAM [1]", "value": 20, "unit": "fold"}]}
{"binder": "B13", "values": [{"measurement": "PD-1 reporter Jurkat cells on test-article-loaded MAdCAM-expressing CHO cells; EC50", "setting": "[3]", "value": 3.02, "unit": "nM"}, {"measurement": "SHP-2 recruitment, Ig-tethered test article, PD-1 reporter Jurkat cells; EC50 (second experiment)", "setting": "[3]", "value": 4.45, "unit": "nM"}]}
